We go through 28 substances from patent US20050118674A1, “Engineering of Controlled Deamidation Rates in Peptides, Proteins, and Similar Structures” (priority 2003, published 2005).

Where no end group is shown, it is not given here.

The first series can be described thus: First-order nonenzymatic deamidation of pentapeptides in Tris buffer. It is filed as physicochemical. The note with it: pH 7.4, 37.0° C., 0.15 M Tris HCl; Asn pentapeptides. The procedure, abridged:
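First-order deamidation rates determined for XxxAsnYyy and XxxGlnYyy pentapeptides in 0.15 M Tris buffer, pH 7.4, 37° C. Not all values were measured directly: several Asn rates were estimated and most Gln rates came from surface fitting.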
For “GlyLysAsnThrGly (GKNTG; printed: GlyLysAsnThrGly)”, the “First-Order Deamidation Halftimes of GlyXxxAsnYyyGly” value worked out at 58.1 days.
Still for that read-out and setting: then “GlyAmCysAsnGluGly (CNEG; not fully specified (N-terminus); printed as GlyAmCysAsnGluGly)”, with 45 days.
On to “GlyHisAsnValGly (GHNVG; printed: GlyHisAsnValGly)”, for which the “First-Order Deamidation Halftimes of GlyXxxAsnYyyGly” value is 247 days.
On the same count and under the same terms, for “GlyAlaAsnHisGly (GANHG; printed: GlyAlaAsnHisGly)” the value was 9.3 days.
For “GlyGlyAsnHisGly (GGNHG; printed: GlyGlyAsnHisGly)”, the “First-Order Deamidation Halftimes of GlyXxxAsnYyyGly” value turned out to be 9.2 days.
On the same count and under the same terms, for “GlyPheAsnProGly (GFNPG; printed: GlyPheAsnProGly)” the value was 7990 days; for “GlyTyrAsnArgGly (GYNRG; printed: GlyTyrAsnArgGly)”, 56.9 days; for “GlyGluAsnArgGly (GENRG; printed: GlyGluAsnArgGly)”, 80.9 days.
On to “GlyMetAsnTyrGly (GMNYG; printed: GlyMetAsnTyrGly)”, for which the “First-Order Deamidation Halftimes of GlyXxxAsnYyyGly” value is listed as 74.0 days.
For “GlyGluAsnPheGly (GENFG; printed: GlyGluAsnPheGly)”, the “First-Order Deamidation Halftimes of GlyXxxAsnYyyGly” value is 70.2 days.
Consider “GlyLysAsnPheGly (GKNFG; printed: GlyLysAsnPheGly)”, for which the “First-Order Deamidation Halftimes of GlyXxxAsnYyyGly” value was determined as 70.1 days.
Consider “GlyAmCysAsnPheGly (CNFG; not fully specified (N-terminus); printed as GlyAmCysAsnPheGly)”, for which the “First-Order Deamidation Halftimes of GlyXxxAsnYyyGly” value was 63.3 days.
Still for that read-out and setting: then “GlyLeuAsnLeuGly (GLNLG; printed: GlyLeuAsnLeuGly)”, with 155 days.

The series is the same for the next values; noted with them: pH 7.4, 37.0 ° C., 0.15 M Tris HCl; Gln pentapeptides; 52 values measured, rest derived from surface fitting.
As for “GlyTrpGlnMetGly (GWQMG; printed: GlyTrpGlnMetGly)”, the “First-Order Deamidation Halftimes of GlyXxxGlnYyyGly” value was determined as 5300 days.
Turning to “GlyTyrGlnGlyGly (GYQGG; printed: GlyTyrGlnGlyGly)”, the “First-Order Deamidation Halftimes of GlyXxxGlnYyyGly” value came out at 850 days.
On the same count and under the same terms, then “GlyTyrGlnCysGly (GYQCG; printed: GlyTyrGlnCysGly)”, with 2200 days.
Turning to “GlySerGlnAlaGly (GSQAG; printed: GlySerGlnAlaGly)”, the “First-Order Deamidation Halftimes of GlyXxxGlnYyyGly” value amounted to 6400 days.
“GlyCysGlnIleGly (GCQIG; printed: GlyCysGlnIleGly)”: the “First-Order Deamidation Halftimes of GlyXxxGlnYyyGly” value is 4900 days.
Consider “GlyMetGlnPheGly (GMQFG; printed: GlyMetGlnPheGly)”, for which the “First-Order Deamidation Halftimes of GlyXxxGlnYyyGly” value was 6600 days.
As for “GlySerGlnGlyGly (GSQGG; printed: GlySerGlnGlyGly)”, the “First-Order Deamidation Halftimes of GlyXxxGlnYyyGly” value stood at 700 days.
On the same count and under the same terms, then “GlyAlaGlnHisGly (GAQHG; printed: GlyAlaGlnHisGly)”, with 5500 days.
For the substance “GlyMetGlnGlyGly (GMQGG; printed: GlyMetGlnGlyGly)”, the “First-Order Deamidation Halftimes of GlyXxxGlnYyyGly” value is 600 days.
Regarding “GlyGluGlnPheGly (GEQFG; printed: GlyGluGlnPheGly)”, the “First-Order Deamidation Halftimes of GlyXxxGlnYyyGly” value was 8400 days.
As to “GlyAlaGlnAlaGly (GAQAG; printed: GlyAlaGlnAlaGly)”, the “First-Order Deamidation Halftimes of GlyXxxGlnYyyGly” value is on record as 5300 days.
For “GlyValGlnValGly (GVQVG; printed: GlyValGlnValGly)”, the “First-Order Deamidation Halftimes of GlyXxxGlnYyyGly” value turned out to be 5900 days.
For the substance “GlyAspGlnHisGly (GDQHG; printed: GlyAspGlnHisGly)”, the “First-Order Deamidation Halftimes of GlyXxxGlnYyyGly” value turned out to be 2500 days.
As to “GlySerGlnCysGly (GSQCG; printed: GlySerGlnCysGly)”, the “First-Order Deamidation Halftimes of GlyXxxGlnYyyGly” value is 2100 days.
Consider “GlyLysGlnSerGly (GKQSG; printed: GlyLysGlnSerGly)”, for which the “First-Order Deamidation Halftimes of GlyXxxGlnYyyGly” value came to 4200 days.
